# Laboratory results: US12383631 (BRIGHT PEAK THERAPEUTICS, dated 2025)
# T1: IL-18 receptor (IL-18Rα/IL-18Rβ) on cells (HEK-Blue IL18R reporter cells, NK-92, KG-1) (human, UniProt Q13478 19-541; O95256 20-599)
# T1 sequence (looked up) 1: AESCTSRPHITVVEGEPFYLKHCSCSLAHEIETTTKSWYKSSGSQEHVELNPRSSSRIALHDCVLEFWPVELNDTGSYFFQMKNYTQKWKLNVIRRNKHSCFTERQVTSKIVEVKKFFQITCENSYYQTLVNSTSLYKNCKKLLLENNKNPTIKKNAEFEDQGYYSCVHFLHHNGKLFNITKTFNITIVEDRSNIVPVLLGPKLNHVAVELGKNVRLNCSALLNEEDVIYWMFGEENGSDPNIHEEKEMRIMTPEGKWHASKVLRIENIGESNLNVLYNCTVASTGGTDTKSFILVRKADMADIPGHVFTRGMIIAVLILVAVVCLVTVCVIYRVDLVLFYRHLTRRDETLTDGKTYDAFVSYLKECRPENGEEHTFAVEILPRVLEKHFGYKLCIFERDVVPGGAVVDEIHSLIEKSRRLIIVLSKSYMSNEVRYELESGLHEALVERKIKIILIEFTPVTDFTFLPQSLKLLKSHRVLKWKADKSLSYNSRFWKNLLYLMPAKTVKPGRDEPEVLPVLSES
# T1 sequence (looked up) 2: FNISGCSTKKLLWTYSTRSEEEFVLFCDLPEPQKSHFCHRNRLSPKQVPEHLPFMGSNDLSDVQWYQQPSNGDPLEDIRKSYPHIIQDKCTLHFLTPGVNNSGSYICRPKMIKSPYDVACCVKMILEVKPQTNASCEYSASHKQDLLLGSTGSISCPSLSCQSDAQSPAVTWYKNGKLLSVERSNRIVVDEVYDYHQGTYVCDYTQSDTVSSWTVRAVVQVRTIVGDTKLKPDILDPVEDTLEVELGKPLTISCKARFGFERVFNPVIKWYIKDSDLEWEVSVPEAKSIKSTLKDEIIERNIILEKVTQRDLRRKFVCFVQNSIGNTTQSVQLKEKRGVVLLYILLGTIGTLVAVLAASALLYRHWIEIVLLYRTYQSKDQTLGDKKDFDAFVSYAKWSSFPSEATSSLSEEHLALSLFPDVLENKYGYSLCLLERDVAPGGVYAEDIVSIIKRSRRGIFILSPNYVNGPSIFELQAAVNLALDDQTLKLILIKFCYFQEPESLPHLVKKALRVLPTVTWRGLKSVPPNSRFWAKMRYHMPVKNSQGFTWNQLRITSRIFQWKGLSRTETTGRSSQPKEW
# Molecular target: T1, IL-18 receptor (IL-18Rα/IL-18Rβ) on …
# Assay: cell-based or functional assay
row,"EC50, HEK-Blue IL18R reporter cells",Binder
1,14 pM,IL-18 polypeptide C192 (SEQ ID NO: 70) (ligand) GYFGKLKSKLSIIRNLNDQVLFIDQGNRPLFEDMTDSDARDNAPRTIFIISGYADSQPRGMAVAISVKCEKISTLSAENKIISFKEMNPPDNIKDTKSDIIFFQRSVPGHDNKMQFESSSYEGYFLAAEKERDLFKLILKKEDELGDRSIMFTVQNED
2,2.5 pM,IL-18 polypeptide C140 (SEQ ID NO: 72) (ligand) GGGGYFGKLKSKLSIIRNLNDQVLFIDQGNRPLFEDMTDSDARDNAPRTIFIISMYADSQPRGMAVAISVKCEKISTLSAENKIISFKEMNPPDNIKDTKSDIIFFQRSVPGHDNKMQFESSSYEGYFLAAEKERDLFKLILKKEDELGDRSIMFTVQNED
3,0.1 pM,IL-18 polypeptide C181 (ligand) YFGKLKSKLSIIRNLNDQVLFIDQGNRPLFEDMTDSDARDNAPRTIFIISMYADSQPRGMAVAISVKCEKISTLSAENKIISFKEMNPPDNIKDTKSDIIFFQRSVPGHDNKMQFESSSYEGYFLAAEKERDLFKLILKKEDELGDRSIMFTEQNED

# Further lines, the binder ahead of its results:
row,Binder,"EC50, HEK-Blue IL18R reporter cells"
1,IL-18 polypeptide C141 (SEQ ID NO: 71) (ligand) GYFGKLKSKLSIIRNLNDQVLFIDQGNRPLFEDMTDSDARDNAPRTIFIISMYADSQPRGMAVAISVKCEKISTLSAENKIISFKEMNPPDNIKDTKSDIIFFQRSVPGHDNKMQFESSSYEGYFLAAEKERDLFKLILKKEDELGDRSIMFTVQNED,1.68 pM
2,IL-18 polypeptide C177 (ligand) YFGKLKSKLSIIRNLNDQVLFIDQGNRPLFEDMTDSDARDNAPRTIFIRSMYADSQPRGMAVAISVKCEKISTLSAENKIISFKEMNPPDNIKDTKSDIIFFQRSVPGHDNKMQFESSSYEGYFLAAEKERDLFKLILKKEDELGDRSIMFTVQNED,0.04 pM
3,IL-18 polypeptide C179 (ligand) YFGKLKSELSIIRNLNDQVLFIDQGNRPLFEDMTDSDARDNAPRTIFIISMYADSQPRGMAVAISVKCEKISTLSAENKIISFKEMNPPDNIKDTKSDIIFFRRSVPGHDNKMQFESSSYEGYFLAAEKERDLFKLILKKEDELGDRSIMFTVQNED,0.4 pM
4,IL-18 polypeptide C182 (ligand) YFGKLKSKLSIIRNLNDQVLFIDQGNRPLFEDMTDSDARDNAPRTIFIISMYADSQPRGMAVAISVKCEKISTLSAENKIISFKEMNPPDNIKDTKSDIIFFQRSVPGHDNKMQFESSSYEGYFLAAEKERDLFKLILKKEDELGDRSIMFTYQNED,0.08 pM
5,IL-18 polypeptide C183 (SEQ ID NO: 69) (ligand) YFGKLKSKLSIIRNLNDQVLFIDQGNRPLFEDMTDSDARDNAPRTIFIISGYADSQPRGMAVAISVKCEKISTLSAENKIISFKEMNPPDNIKDTKSDIIFFQRSVPGHDNKMQFESSSYEGYFLAAEKERDLFKLILKKEDELGDRSIMFTVQNED,0.1 pM
6,IL-18 polypeptide C178 (ligand) YFGKLKSKLSIIRNLNDQVLFIDQGNRPLFEDMTDSDARDNAPRTIFIISMYADSQPRGMAVAISVKCEKISTLSAENKIISFKEMNPPDNIKDTKSDIIFFRRSVPGHDNKMQFESSSYEGYFLAAEKERDLFKLILKKEDELGDRSIMFTVQNED,0.26 pM
7,"IL-18 polypeptide of SEQ ID NO: 34 (E06K, K53A, S55A) (ligand) YFGKLKSKLSVIRNLNDQVLFIDQGNRPLFEDMTDSDCRDNAPRTIFIISMYADAQPRGMAVTISVKCEKISTLSCENKIISFKEMNPPDNIKDTKSDIIFFQRSVPGHDNKMQFESSSYEGYFLACEKERDLFKLILKKEDELGDRSIMFTVQNED",272 pM

# Molecular target: T1, IL-18 receptor (IL-18Rα/IL-18Rβ) on …
# Assay: cell-based or functional assay
# Remark: another data set of the same source
row,"EC50, IFNγ stimulation, NK92 cells",Binder
1,0.069 nM,"IL-18 polypeptide of SEQ ID NO: 9 (E6K, C38A, K53A, C68A, D98C) (ligand) YFGKLKSKLSVIRNLNDQVLFIDQGNRPLFEDMTDSDARDNAPRTIFIISMYADSQPRGMAVTISVKAEKISTLSCENKIISFKEMNPPDNIKDTKSCIIFFQRSVPGHDNKMQFESSSYEGYFLACEKERDLFKLILKKEDELGDRSIMFTVQNED"
2,0.022 nM,"IL-18 polypeptide of SEQ ID NO: 4 (E6K, C38A, K53A, C68A, M86C) (ligand) YFGKLKSKLSVIRNLNDQVLFIDQGNRPLFEDMTDSDARDNAPRTIFIISMYADSQPRGMAVTISVKAEKISTLSCENKIISFKECNPPDNIKDTKSDIIFFQRSVPGHDNKMQFESSSYEGYFLACEKERDLFKLILKKEDELGDRSIMFTVQNED"
3,6.12 nM,"IL-18 polypeptide of SEQ ID NO: 43 (E06K, K53A, S55A, Y01G) (ligand) GFGKLKSKLSVIRNLNDQVLFIDQGNRPLFEDMTDSDCRDNAPRTIFIISMYADAQPRGMAVTISVKCEKISTLSCENKIISFKEMNPPDNIKDTKSDIIFFQRSVPGHDNKMQFESSSYEGYFLACEKERDLFKLILKKEDELGDRSIMFTVQNED"
4,30 nM,"IL-18 polypeptide of SEQ ID NO: 45 (E06K, K53A, S55A, D54A) (ligand) YFGKLKSKLSVIRNLNDQVLFIDQGNRPLFEDMTDSDCRDNAPRTIFIISMYAAAQPRGMAVTISVKCEKISTLSCENKIISFKEMNPPDNIKDTKSDIIFFQRSVPGHDNKMQFESSSYEGYFLACEKERDLFKLILKKEDELGDRSIMFTVQNED"

# The remaining lines, values behind:
row,Binder,"EC50, IFNγ stimulation, NK92 cells"
1,"IL-18 polypeptide of SEQ ID NO: 5 (E6K, V11I, C38A, K53A, T63A, C68A, C76A, M86C, C127A) (ligand) YFGKLKSKLSIIRNLNDQVLFIDQGNRPLFEDMTDSDARDNAPRTIFIISMYADSQPRGMAVAISVKAEKISTLSAENKIISFKECNPPDNIKDTKSDIIFFQRSVPGHDNKMQFESSSYEGYFLAAEKERDLFKLILKKEDELGDRSIMFTVQNED",0.075 nM
2,"IL-18 polypeptide of SEQ ID NO: 6 (E6K, V11I, C38A, K53A, T63A, C68A, C76A, D98C, C127A) (ligand) YFGKLKSKLSIIRNLNDQVLFIDQGNRPLFEDMTDSDARDNAPRTIFIISMYADSQPRGMAVAISVKAEKISTLSAENKIISFKEMNPPDNIKDTKSCIIFFQRSVPGHDNKMQFESSSYEGYFLAAEKERDLFKLILKKEDELGDRSIMFTVQNED",1.37 nM
3,"IL-18 polypeptide of SEQ ID NO: 46 (E06K, K53A, S55A, M51G) (ligand) YFGKLKSKLSVIRNLNDQVLFIDQGNRPLFEDMTDSDCRDNAPRTIFIISGYADAQPRGMAVTISVKCEKISTLSCENKIISFKEMNPPDNIKDTKSDIIFFQRSVPGHDNKMQFESSSYEGYFLACEKERDLFKLILKKEDELGDRSIMFTVQNED",7.4 nM
4,"IL-18 polypeptide of SEQ ID NO: 49 (E06K, K53A, S55A, C38S, C68S, C76S, C127S, K70C) (ligand) YFGKLKSKLSVIRNLNDQVLFIDQGNRPLFEDMTDSDSRDNAPRTIFIISMYADAQPRGMAVTISVKSECISTLSSENKIISFKEMNPPDNIKDTKSDIIFFQRSVPGHDNKMQFESSSYEGYFLASEKERDLFKLILKKEDELGDRSIMFTVQNED",58.5 nM
5,"IL-18 polypeptide of SEQ ID NO: 34 (E06K, K53A, S55A) (ligand) YFGKLKSKLSVIRNLNDQVLFIDQGNRPLFEDMTDSDCRDNAPRTIFIISMYADAQPRGMAVTISVKCEKISTLSCENKIISFKEMNPPDNIKDTKSDIIFFQRSVPGHDNKMQFESSSYEGYFLACEKERDLFKLILKKEDELGDRSIMFTVQNED",0.824 nM
6,"IL-18 polypeptide of SEQ ID NO: 44 (E06K, K53A, S55A, F02A) (ligand) YAGKLKSKLSVIRNLNDQVLFIDQGNRPLFEDMTDSDCRDNAPRTIFIISMYADAQPRGMAVTISVKCEKISTLSCENKIISFKEMNPPDNIKDTKSDIIFFQRSVPGHDNKMQFESSSYEGYFLACEKERDLFKLILKKEDELGDRSIMFTVQNED",> 1000 nM
7,"IL-18 polypeptide of SEQ ID NO: 35 (Y01G, F02A, E06K, M51G, K53A, D54A, S55A, T63A) (ligand) GAGKLKSKLSVIRNLNDQVLFIDQGNRPLFEDMTDSDCRDNAPRTIFIISGYAAAQPRGMAVAISVKCEKISTLSCENKIISFKEMNPPDNIKDTKSDIIFFQRSVPGHDNKMQFESSSYEGYFLACEKERDLFKLILKKEDELGDRSIMFTVQNED",> 55 nM
